Laboratory results as given in the supplement of paper PMC10065799, “High-throughput profiling of sequence recognition by tyrosine kinases and SH2 domains using bacterial peptide display” (eLife, 2023).

Target: MERTK (UniProt Q12866)
Experiment: phosphorylation enrichment, bacterial display (enrichment ratio); higher = better substrate or ligand; peptides without Tyr show the background
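Note: 11-residue human phosphosite peptides and single-mutation variants displayed on the E. coli surface, counted by deep sequencing, each peptide's frequency after selection divided by its frequency in the unselected input library; frequency after pTyr selection over input frequency; kinase dosed for 20-30% of maximal phosphorylation in three min.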

MERTK, sequence (Q12866 whole entry, looked up): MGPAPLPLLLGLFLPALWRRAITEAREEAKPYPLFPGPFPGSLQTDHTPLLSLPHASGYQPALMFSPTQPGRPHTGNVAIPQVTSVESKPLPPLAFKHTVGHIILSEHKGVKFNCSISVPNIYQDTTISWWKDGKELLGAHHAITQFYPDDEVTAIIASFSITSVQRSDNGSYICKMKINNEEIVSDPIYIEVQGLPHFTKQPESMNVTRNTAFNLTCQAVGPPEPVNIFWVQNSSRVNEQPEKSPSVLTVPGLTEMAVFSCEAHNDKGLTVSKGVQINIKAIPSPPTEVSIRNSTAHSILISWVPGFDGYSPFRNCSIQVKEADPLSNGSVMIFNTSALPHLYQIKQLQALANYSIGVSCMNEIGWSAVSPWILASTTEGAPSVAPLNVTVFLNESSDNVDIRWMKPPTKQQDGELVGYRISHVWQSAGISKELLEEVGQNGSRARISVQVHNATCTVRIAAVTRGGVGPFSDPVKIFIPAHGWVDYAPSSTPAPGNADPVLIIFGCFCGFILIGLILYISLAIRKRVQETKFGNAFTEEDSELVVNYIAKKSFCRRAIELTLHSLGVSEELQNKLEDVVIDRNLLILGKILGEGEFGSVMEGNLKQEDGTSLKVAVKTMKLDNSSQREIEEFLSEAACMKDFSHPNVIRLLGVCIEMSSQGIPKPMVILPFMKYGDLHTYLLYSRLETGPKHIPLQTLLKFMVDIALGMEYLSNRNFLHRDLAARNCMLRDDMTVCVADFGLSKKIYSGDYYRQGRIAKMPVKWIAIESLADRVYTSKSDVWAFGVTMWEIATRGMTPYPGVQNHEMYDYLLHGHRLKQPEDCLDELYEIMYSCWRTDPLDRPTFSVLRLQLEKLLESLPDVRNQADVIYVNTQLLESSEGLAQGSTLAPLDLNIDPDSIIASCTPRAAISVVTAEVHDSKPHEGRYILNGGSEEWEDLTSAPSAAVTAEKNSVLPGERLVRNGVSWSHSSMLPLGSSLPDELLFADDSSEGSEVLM

| Sequence | phosphorylation enrichment |
| --- | --- |
| ERPGVHTNVVE [F11_Y608_Y608H] | 0.483 |
| NMSRIYSTTKV [ACE_Y151_A154T] | 0.366 |
| QDRTYYERVRT [SPEN_Y633_S635R] | 0.629 |
| KMMGRYEMFAR [UPB1_Y362_T359M_YF] | 0.393 |
| IMVFVYSRVFQ [ADRB2_Y219] | 0.448 |
| LIDGFYRLTED [JAK2_Y373_A377E_YF] | 0.549 |
| KMKGDYFCFLA [YWHAG_Y130_R132C_YF] | 2.32 |
| RNIQQCNSFVS [PRKAR1A_Y373_Y373C] | 0.66 |
| GLIPAYHRFIM [NMNAT1_Y64_V67F] | 0.593 |
| CPFNLYAEQLS [HGD_Y40_YF] | 0.769 |
| RISPEYKQNEI [GJB1_Y243_L239I] | 0.598 |
| GDPTEYYITAI [IGSF22_Y501_S503I] | 0.399 |
| RLGVTYEQALA [MAP2_Y996_G991R] | 0.737 |
| YLQEIYNSNNQ [FGG_Y140] | 0.441 |
| LNRAGYCDALE [MTUS1_Y151_C148R] | 0.484 |
| TLQIMYGCDVG [HLA-A_Y123_I119L] | 0.459 |
| EPNSRYTYKLE [USH2A_Y3745] | 0.384 |

| Sequence | phosphorylation enrichment |
| --- | --- |
| EERNTYVNTTL [TEK_Y1102_K1100N] | 0.675 |
| KLADMYGGGED [CDH1_Y876] | 0.436 |
| WTAHSYRMGSA [ARHGEF7_Y785_T790A] | 0.377 |
| PGPPGYCDSSH [COL12A1_Y3043_Q3048H] | 0.84 |
| SIKDKYVTAVY [KCNH2_Y611_L615V] | 0.443 |
| TKVTFYKQPMF [GBA_Y451_D448V] | 0.419 |
| AHDGEYGAEAL [HBA1_Y25_A22D] | 0.451 |
| AELKLYSGAQT [ZAP70_Y178_R175L] | 0.395 |
| YECKWYIPLTD [BCR_Y756_D752E] | 0.922 |
| WFPANYVKLLN [ITSN1_Y1132_S1137N] | 0.587 |
| GGGMIYPLDLF | 0.688 |
| EIVHRYVELLD [AP1S3_Y87] | 0.506 |
| ISKKIYDPIHD [CTNNA3_Y614_T616P] | 0.455 |
| NIKKEYTKMVQ [PMS2_Y181_A182T] | 0.452 |
| LSQDVYEEDSF [RET_Y900_R897Q_YF] | 1.26 |
| TIMTDYNPNFC [ALK_Y1092_YF] | 0.395 |

Target: EPHB1 (UniProt P54762)
Experiment: as above

EPHB1, sequence (P54762 whole entry, looked up): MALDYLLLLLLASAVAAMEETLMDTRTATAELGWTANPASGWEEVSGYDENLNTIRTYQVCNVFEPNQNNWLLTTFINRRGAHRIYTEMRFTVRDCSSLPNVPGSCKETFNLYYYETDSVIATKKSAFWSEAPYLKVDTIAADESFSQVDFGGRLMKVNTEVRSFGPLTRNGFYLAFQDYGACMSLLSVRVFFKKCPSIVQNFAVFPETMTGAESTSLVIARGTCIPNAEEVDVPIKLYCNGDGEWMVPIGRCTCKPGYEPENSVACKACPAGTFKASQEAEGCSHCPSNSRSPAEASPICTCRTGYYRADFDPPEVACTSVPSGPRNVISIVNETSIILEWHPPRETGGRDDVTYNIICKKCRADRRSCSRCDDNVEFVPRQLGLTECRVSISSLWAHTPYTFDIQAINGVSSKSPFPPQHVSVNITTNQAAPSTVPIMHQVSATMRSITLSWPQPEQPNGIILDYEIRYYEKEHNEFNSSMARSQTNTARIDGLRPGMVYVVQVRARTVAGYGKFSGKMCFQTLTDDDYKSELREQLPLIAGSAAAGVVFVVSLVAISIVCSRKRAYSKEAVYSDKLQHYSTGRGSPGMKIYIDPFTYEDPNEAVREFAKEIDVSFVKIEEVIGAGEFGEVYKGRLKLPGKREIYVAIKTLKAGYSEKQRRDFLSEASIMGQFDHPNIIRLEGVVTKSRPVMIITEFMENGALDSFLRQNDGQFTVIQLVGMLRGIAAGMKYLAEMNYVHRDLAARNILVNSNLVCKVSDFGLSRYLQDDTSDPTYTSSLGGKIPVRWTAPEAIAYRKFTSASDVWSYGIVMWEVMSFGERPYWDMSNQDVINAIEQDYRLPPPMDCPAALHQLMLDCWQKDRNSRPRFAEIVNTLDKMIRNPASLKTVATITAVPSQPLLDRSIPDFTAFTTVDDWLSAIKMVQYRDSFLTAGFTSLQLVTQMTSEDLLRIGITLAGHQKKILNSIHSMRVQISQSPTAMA

| Sequence | phosphorylation enrichment |
| --- | --- |
| ERPGVHTNVVE [F11_Y608_Y608H] | 0.598 |
| NMSRIYSTTKV [ACE_Y151_A154T] | 0.296 |
| QDRTYYERVRT [SPEN_Y633_S635R] | 0.732 |
| KMMGRYEMFAR [UPB1_Y362_T359M_YF] | 0.327 |
| IMVFVYSRVFQ [ADRB2_Y219] | 0.554 |
| LIDGFYRLTED [JAK2_Y373_A377E_YF] | 0.586 |
| KMKGDYFCFLA [YWHAG_Y130_R132C_YF] | 2.48 |
| RNIQQCNSFVS [PRKAR1A_Y373_Y373C] | 0.718 |
| GLIPAYHRFIM [NMNAT1_Y64_V67F] | 0.521 |
| CPFNLYAEQLS [HGD_Y40_YF] | 1.16 |
| RISPEYKQNEI [GJB1_Y243_L239I] | 0.998 |
| GDPTEYYITAI [IGSF22_Y501_S503I] | 0.594 |
| RLGVTYEQALA [MAP2_Y996_G991R] | 0.729 |
| YLQEIYNSNNQ [FGG_Y140] | 0.617 |
| LNRAGYCDALE [MTUS1_Y151_C148R] | 0.684 |
| TLQIMYGCDVG [HLA-A_Y123_I119L] | 0.594 |
| EPNSRYTYKLE [USH2A_Y3745] | 0.537 |

| Sequence | phosphorylation enrichment |
| --- | --- |
| EERNTYVNTTL [TEK_Y1102_K1100N] | 0.955 |
| KLADMYGGGED [CDH1_Y876] | 0.424 |
| WTAHSYRMGSA [ARHGEF7_Y785_T790A] | 0.477 |
| PGPPGYCDSSH [COL12A1_Y3043_Q3048H] | 0.724 |
| SIKDKYVTAVY [KCNH2_Y611_L615V] | 0.446 |
| TKVTFYKQPMF [GBA_Y451_D448V] | 0.439 |
| AHDGEYGAEAL [HBA1_Y25_A22D] | 0.556 |
| AELKLYSGAQT [ZAP70_Y178_R175L] | 0.567 |
| YECKWYIPLTD [BCR_Y756_D752E] | 0.843 |
| WFPANYVKLLN [ITSN1_Y1132_S1137N] | 3.81 |
| GGGMIYPLDLF | 0.527 |
| EIVHRYVELLD [AP1S3_Y87] | 0.483 |
| ISKKIYDPIHD [CTNNA3_Y614_T616P] | 0.48 |
| NIKKEYTKMVQ [PMS2_Y181_A182T] | 0.394 |
| LSQDVYEEDSF [RET_Y900_R897Q_YF] | 1.19 |
| TIMTDYNPNFC [ALK_Y1092_YF] | 0.498 |

Target: Hck (UniProt P08631)
Experiment: as above

Hck, sequence (P08631 whole entry, looked up): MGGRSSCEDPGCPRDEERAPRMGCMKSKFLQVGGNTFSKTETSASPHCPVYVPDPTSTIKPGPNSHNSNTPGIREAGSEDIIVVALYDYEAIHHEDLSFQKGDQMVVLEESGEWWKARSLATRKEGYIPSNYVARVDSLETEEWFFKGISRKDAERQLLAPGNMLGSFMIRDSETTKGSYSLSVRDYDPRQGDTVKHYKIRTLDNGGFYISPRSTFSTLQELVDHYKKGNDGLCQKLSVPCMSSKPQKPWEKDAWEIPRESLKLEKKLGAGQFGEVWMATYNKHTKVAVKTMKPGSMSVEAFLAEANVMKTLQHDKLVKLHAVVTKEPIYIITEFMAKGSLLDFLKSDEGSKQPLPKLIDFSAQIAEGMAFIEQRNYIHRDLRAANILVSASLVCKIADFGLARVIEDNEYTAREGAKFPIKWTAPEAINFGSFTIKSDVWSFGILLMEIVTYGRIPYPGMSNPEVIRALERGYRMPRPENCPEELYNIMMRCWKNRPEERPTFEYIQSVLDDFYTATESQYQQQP

| Sequence | phosphorylation enrichment |
| --- | --- |
| ERPGVHTNVVE [F11_Y608_Y608H] | 0.394 |
| NMSRIYSTTKV [ACE_Y151_A154T] | 0.382 |
| QDRTYYERVRT [SPEN_Y633_S635R] | 5.76 |
| KMMGRYEMFAR [UPB1_Y362_T359M_YF] | 0.402 |
| IMVFVYSRVFQ [ADRB2_Y219] | 0.435 |
| LIDGFYRLTED [JAK2_Y373_A377E_YF] | 0.552 |
| KMKGDYFCFLA [YWHAG_Y130_R132C_YF] | 1 |
| RNIQQCNSFVS [PRKAR1A_Y373_Y373C] | 0.711 |
| GLIPAYHRFIM [NMNAT1_Y64_V67F] | 0.494 |
| CPFNLYAEQLS [HGD_Y40_YF] | 0.772 |
| RISPEYKQNEI [GJB1_Y243_L239I] | 0.607 |
| GDPTEYYITAI [IGSF22_Y501_S503I] | 0.562 |
| RLGVTYEQALA [MAP2_Y996_G991R] | 0.56 |
| YLQEIYNSNNQ [FGG_Y140] | 1.54 |
| LNRAGYCDALE [MTUS1_Y151_C148R] | 0.424 |
| TLQIMYGCDVG [HLA-A_Y123_I119L] | 0.625 |
| EPNSRYTYKLE [USH2A_Y3745] | 0.439 |

| Sequence | phosphorylation enrichment |
| --- | --- |
| EERNTYVNTTL [TEK_Y1102_K1100N] | 0.53 |
| KLADMYGGGED [CDH1_Y876] | 0.463 |
| WTAHSYRMGSA [ARHGEF7_Y785_T790A] | 0.443 |
| PGPPGYCDSSH [COL12A1_Y3043_Q3048H] | 1.58 |
| SIKDKYVTAVY [KCNH2_Y611_L615V] | 0.552 |
| TKVTFYKQPMF [GBA_Y451_D448V] | 0.458 |
| AHDGEYGAEAL [HBA1_Y25_A22D] | 0.445 |
| AELKLYSGAQT [ZAP70_Y178_R175L] | 0.646 |
| YECKWYIPLTD [BCR_Y756_D752E] | 0.585 |
| WFPANYVKLLN [ITSN1_Y1132_S1137N] | 0.536 |
| GGGMIYPLDLF | 0.551 |
| EIVHRYVELLD [AP1S3_Y87] | 0.504 |
| ISKKIYDPIHD [CTNNA3_Y614_T616P] | 0.731 |
| NIKKEYTKMVQ [PMS2_Y181_A182T] | 0.385 |
| LSQDVYEEDSF [RET_Y900_R897Q_YF] | 0.945 |
| TIMTDYNPNFC [ALK_Y1092_YF] | 0.47 |

Tested on: Fer (mouse)
Experiment: as above

| Sequence | phosphorylation enrichment |
| --- | --- |
| ERPGVHTNVVE [F11_Y608_Y608H] | 0.474 |
| NMSRIYSTTKV [ACE_Y151_A154T] | 0.319 |
| QDRTYYERVRT [SPEN_Y633_S635R] | 2.62 |
| KMMGRYEMFAR [UPB1_Y362_T359M_YF] | 0.298 |
| IMVFVYSRVFQ [ADRB2_Y219] | 0.487 |
| LIDGFYRLTED [JAK2_Y373_A377E_YF] | 0.613 |
| KMKGDYFCFLA [YWHAG_Y130_R132C_YF] | 0.548 |
| RNIQQCNSFVS [PRKAR1A_Y373_Y373C] | 0.773 |
| GLIPAYHRFIM [NMNAT1_Y64_V67F] | 0.418 |
| CPFNLYAEQLS [HGD_Y40_YF] | 0.636 |
| RISPEYKQNEI [GJB1_Y243_L239I] | 0.687 |
| GDPTEYYITAI [IGSF22_Y501_S503I] | 0.611 |
| RLGVTYEQALA [MAP2_Y996_G991R] | 0.535 |
| YLQEIYNSNNQ [FGG_Y140] | 0.512 |
| LNRAGYCDALE [MTUS1_Y151_C148R] | 0.571 |
| TLQIMYGCDVG [HLA-A_Y123_I119L] | 0.654 |
| EPNSRYTYKLE [USH2A_Y3745] | 0.27 |

| Sequence | phosphorylation enrichment |
| --- | --- |
| EERNTYVNTTL [TEK_Y1102_K1100N] | 0.404 |
| KLADMYGGGED [CDH1_Y876] | 0.461 |
| WTAHSYRMGSA [ARHGEF7_Y785_T790A] | 0.38 |
| PGPPGYCDSSH [COL12A1_Y3043_Q3048H] | 0.542 |
| SIKDKYVTAVY [KCNH2_Y611_L615V] | 0.431 |
| TKVTFYKQPMF [GBA_Y451_D448V] | 0.42 |
| AHDGEYGAEAL [HBA1_Y25_A22D] | 0.534 |
| AELKLYSGAQT [ZAP70_Y178_R175L] | 0.485 |
| YECKWYIPLTD [BCR_Y756_D752E] | 0.657 |
| WFPANYVKLLN [ITSN1_Y1132_S1137N] | 0.511 |
| GGGMIYPLDLF | 0.534 |
| EIVHRYVELLD [AP1S3_Y87] | 0.499 |
| ISKKIYDPIHD [CTNNA3_Y614_T616P] | 0.446 |
| NIKKEYTKMVQ [PMS2_Y181_A182T] | 0.27 |
| LSQDVYEEDSF [RET_Y900_R897Q_YF] | 0.978 |
| TIMTDYNPNFC [ALK_Y1092_YF] | 0.373 |
